The record followed here is article PMC8191807, “The fidelity of DNA replication, particularly on GC-rich templates, is reduced by defects of the Fe–S cluster in DNA polymerase δ” (Nucleic Acids Research, 2021).

The target of assay [1] is T1, Pol3p, catalytic subunit of DNA polymerase δ (overexpressed for Pol δ purification) (S. cerevisiae, UniProt P15436 1-1097).
T1 construct: Pol3p, catalytic subunit of DNA polymerase δ, Saccharomyces cerevisiae; also called catalytic subunit of Pol δ; source: purified on glutathione Sepharose 4B, PreScission Protease, MonoS FPLC
T1 sequence (looked up): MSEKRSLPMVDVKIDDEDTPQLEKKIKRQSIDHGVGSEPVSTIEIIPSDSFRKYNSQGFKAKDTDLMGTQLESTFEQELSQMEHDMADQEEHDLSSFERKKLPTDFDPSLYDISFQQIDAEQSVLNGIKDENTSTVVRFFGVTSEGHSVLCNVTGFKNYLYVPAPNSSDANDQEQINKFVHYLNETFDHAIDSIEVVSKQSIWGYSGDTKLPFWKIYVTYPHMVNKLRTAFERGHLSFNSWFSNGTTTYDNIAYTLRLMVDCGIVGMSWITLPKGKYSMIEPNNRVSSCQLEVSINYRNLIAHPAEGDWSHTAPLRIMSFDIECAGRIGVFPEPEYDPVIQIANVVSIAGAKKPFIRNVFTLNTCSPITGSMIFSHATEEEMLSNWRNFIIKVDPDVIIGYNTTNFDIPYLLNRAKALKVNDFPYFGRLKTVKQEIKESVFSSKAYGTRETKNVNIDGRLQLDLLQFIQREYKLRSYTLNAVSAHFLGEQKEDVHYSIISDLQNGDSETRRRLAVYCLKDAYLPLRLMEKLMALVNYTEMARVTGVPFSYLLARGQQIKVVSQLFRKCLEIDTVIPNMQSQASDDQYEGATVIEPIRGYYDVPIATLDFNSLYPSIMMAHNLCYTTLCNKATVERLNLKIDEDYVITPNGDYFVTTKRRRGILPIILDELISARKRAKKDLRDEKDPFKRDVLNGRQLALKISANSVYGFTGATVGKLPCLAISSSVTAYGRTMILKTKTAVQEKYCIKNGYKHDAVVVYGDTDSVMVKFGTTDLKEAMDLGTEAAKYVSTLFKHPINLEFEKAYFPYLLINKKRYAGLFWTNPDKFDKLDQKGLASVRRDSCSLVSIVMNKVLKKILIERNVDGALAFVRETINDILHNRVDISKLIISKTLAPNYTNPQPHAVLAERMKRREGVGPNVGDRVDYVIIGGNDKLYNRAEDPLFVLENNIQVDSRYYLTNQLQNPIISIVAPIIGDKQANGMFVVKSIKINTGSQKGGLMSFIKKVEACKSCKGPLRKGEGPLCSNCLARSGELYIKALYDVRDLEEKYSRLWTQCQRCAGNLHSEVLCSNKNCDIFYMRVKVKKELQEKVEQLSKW
Briefly: co-purification (glutathione Sepharose, MonoS FPLC), composition by gel electrophoresis; Pol3p, Pol31p and Pol32p overexpressed together in the MET18 strain BJ2168; batch bound to glutathione Sepharose 4B at 4°C, washed with Hep250, Hep150, Hep50, eluted with 20 mM glutathione, PreScission Protease, MonoS gradient 50-1000 mM NaCl. Particulars: partners not purified.

Assay [2] deals with T2, Pol3 fused to a LexA DNA-binding domain (LexABD-POL3, pBL322) (S. cerevisiae, UniProt P15436 1-1097).
T2 construct: Pol3p, catalytic subunit of DNA polymerase δ, Saccharomyces cerevisiae; also called Pol3^BD; source: yeast two-hybrid fusion (2μ vector pBTM116, strain L40 or its met18Δ derivative DKy440)
T2 sequence (looked up): T1 sequence (looked up)
The assay is described as follows: two-hybrid; LexA DNA-binding domain and GAL4 activation domain fusions, (lexAop)8-lacZ reporter, quantitative β-galactosidase assays in triplicate; wild-type strain L40 and its met18Δ derivative DKy440. To be noted: partners not purified.

B1: Pol31p, accessory subunit of DNA polymerase δ (overexpressed for Pol δ purification) (natural protein, S. cerevisiae, UniProt P46957 1-487, looked up)
chain: MDALLTKFNEDRSLQDENLSQPRTRVRIVDDNLYNKSNPFQLCYKKRDYGSQYYHIYQYRLKTFRERVLKECDKRWDAGFTLNGQLVLKKDKVLDIQGNQPCWCVGSIYCEMKYKPNVLDEVINDTYGAPDLTKSYTDKEGGSDEIMLEDESGRVLLVGDFIRSTPFITGVVVGILGMEAEAGTFQVLDICYPTPLPQNPFPAPIATCPTRGKIALVSGLNLNNTSPDRLLRLEILREFLMGRINNKIDDISLIGRLLICGNSVDFDIKSVNKDELMISLTEFSKFLHNILPSISVDIMPGTNDPSDKSLPQQPFHKSLFDKSLESYFNGSNKEILNLVTNPYEFSYNGVDVLAVSGKNINDICKYVIPSNDNGESENKVEEGESNDFKDDIEHRLDLMECTMKWQNIAPTAPDTLWCYPYTDKDPFVLDKWPHVYIVANQPYFGTRVVEIGGKNIKIISVPEFSSTGMIILLDLETLEAETVKIDI
notes: Pol31p, accessory subunit of DNA polymerase δ, Saccharomyces cerevisiae
In the case of B1, the “stoichiometry N” value in assay [1] is 0.8 molar ratio relative to Pol3p.

B2: Pol31 fused to a GAL4-activation domain (GAL4AD-POL31, pBL364) (natural protein, S. cerevisiae, UniProt P46957 1-487, looked up)
chain: B1 chain
notes: Pol31p, accessory subunit of DNA polymerase δ, Saccharomyces cerevisiae; also called Pol31^AD; source: yeast two-hybrid fusion (2μ vector pACT2, strain L40 or its met18Δ derivative DKy440)
Regarding B2, the “fold reduction of β-galactosidase in the met18 strain relative to the wild-type strain” value in assay [2] was around 2 fold.

B3: Pol32p, accessory subunit of DNA polymerase δ (overexpressed for Pol δ purification) (natural protein, S. cerevisiae, UniProt P47110 1-350, looked up)
chain: MDQKASYFINEKLFTEVKPVLFTDLIHHLKIGPSMAKKLMFDYYKQTTNAKYNCVVICCYKDQTIKIIHDLSNIPQQDSIIDCFIYAFNPMDSFIPYYDIIDQKDCLTIKNSYELKVSESSKIIERTKTLEEKSKPLVRPTARSKTTPEETTGRKSKSKDMGLRSTALLAKMKKDRDDKETSRQNELRKRKEENLQKINKQNPEREAQMKELNNLFVEDDLDTEEVNGGSKPNSPKETDSNDKDKNNDDLEDLLETTAEDSLMDVPKIQQTKPSETEHSKEPKSEEEPSSFIDEDGYIVTKRPATSTPPRKPSPVVKRALSSSKKQETPSSNKRLKKQGTLESFFKRKAK
notes: Pol32p, accessory subunit of DNA polymerase δ, Saccharomyces cerevisiae
For the molecule B3, the “stoichiometry N” value in assay [1] was 1.1 molar ratio relative to Pol3p.
